Laboratory results as given in US20230151095A1 (published 2023).

B1: XENP42653 (bispecific antibody)
heavy: EVQLLESGGGLVQPGGSLRLSCAVSGFSLSSYGVIWVRQAPGKGLEYVSWVSSGGSTNYASSVKGRFTISRDTSKNTVYLQMNSLRAEDTAVYFCARGATNSGTDIWGPGTLVTVSSASTKGPSVFPLAPSSKSTSGGTAALGCLVKDYFPEPVTVSWNSGALTSGVHTFPAVLQSSGLYSLSSVVTVPSSSLGTQTYICNVNHKPSDTKVDKKVEPKSCDKTHTCPPCPAPELLGGPSVFLFPPKPKDTLMISRTPEVTCVVVDVSHEDPEVKFNWYVDGVEVHNAKTKPREEEYNSTYRVVSVLTVLHQDWLNGKEYKCKVSNKALPAPIEKTISKAKGQPREPQVYTLPPSREEMTKNQVSLTCDVSGFYPSDIAVEWESDGQPENNYKTTPPVLDSDGSFFLYSKLTVDKSRWEQGDVFSCSVMHEALHNHYTQKSLSLSPGK
chain: not shown
light: DIVMTQSPSSLSASVGDRVTITCRASQSINSWLSWYQQKPGKPPKLLIYGASNLASGVPSRFKGSGSGTDFTLTISSLQPEDFATYYCQNNYGIIAAGATFGGGTKVEIKRTVAAPSVFIFPPSDEQLKSGTASVVCLLNNFYPREAKVQWKVDNALQSGNSQESVTEQDSKDSTYSLSSTLTLSKADYEKHKVYACEVTHQGLSSPVTKSFNRGEC
B2: XENP38093 (1D2B4, Bivalent) (antibody, V domains shown)
VH: EVQLLESGGGLVQPGGSLRLSCAASGFTFSSFGMSWVRQAPGKGLEWVSTISGSGSTTYYADSVKGRFTISRDNSKNTLYLQMNSLRAEDTAVYYCAKGVFSEWHYYFDYWGQGTLVTVSS
VL: not shown
B3: 38E2_H2_L1.1 (antibody, V domains shown)
VH: EVQLLESGGGLVQPGGSLRLSCAVSGFSLSSYGVIWVRQAPGKGLEYVSWVSSGGSTNYASSVKGRFTISRDTSKNTVYLQMNSLRAEDTAVYFCARGATNSGTDIWGPGTLVTVSS
VL: DIVMTQSPSSLSASVGDRVTITCRASQSINSWLSWYQQKPGKPPKLLIYGASNLASGVPSRFKGSGSGTDFTLTISSLQPEDFATYYCQNNYGIIAAGATFGGGTKVEIK
B4: XENP40557 B7H3 Fab x NKG2D scFv (mAb-scFv) (antibody)
chain 1: EVQLLESGGGLVQPGGSLRLSCAVSGFSLSSYGVIWVRQAPGKGLEYVSWVSSGGSTNYASSVKGRFTISRDTSKNTVYLQMNSLRAEDTAVYFCARGATNSGTDIWGPGTLVTVSSASTKGPSVFPLAPSSKSTSGGTAALGCLVKDYFPEPVTVSWNSGALTSGVHTFPAVLQSSGLYSLSSVVTVPSSSLGTQTYICNVNHKPSDTKVDKKVEPKSCDKTHTCPPCPAPPVAGPSVFLFPPKPKDTLMISRTPEVTCVVVDVKHEDPEVKFNWYVDGVEVHNAKTKPREEEYNSTYRVVSVLTVLHQDWLNGKEYKCKVSNKALPAPIEKTISKAKGQPREPQVYTLPPSREEMTKNQVSLTCDVSGFYPSDIAVEWESDGQPENNYKTTPPVLDSDGSFFLYSKLTVDKSRWEQGDVFSCSVMHEALHNHYTQKSLSLSPGK
chain 2: not shown
chain 3: DIVMTQSPSSLSASVGDRVTITCRASQSINSWLSWYQQKPGKPPKLLIYGASNLASGVPSRFKGSGSGTDFTLTISSLQPEDFATYYCQNNYGIIAAGATFGGGTKVEIKRTVAAPSVFIFPPSDEQLKSGTASVVCLLNNFYPREAKVQWKVDNALQSGNSQESVTEQDSKDSTYSLSSTLTLSKADYEKHKVYACEVTHQGLSSPVTKSFNRGEC
B5: XENP42652 (bispecific antibody)
heavy: EVQLLESGGGLVQPGGSLRLSCAVSGFSLSSYGVIWVRQAPGKGLEYVSWVSSGGSTNYASSVKGRFTISRDTSKNTVYLQMNSLRAEDTAVYFCARGATNSGTDIWGPGTLVTVSSASTKGPSVFPLAPSSKSTSGGTAALGCLVKDYFPEPVTVSWNSGALTSGVHTFPAVLQSSGLYSLSSVVTVPSSSLGTQTYICNVNHKPSDTKVDKKVEPKSCDKTHTCPPCPAPELLGGPSVFLFPPKPKDTLMISRTPEVTCVVVDVSHEDPEVKFNWYVDGVEVHNAKTKPREEEYNSTYRVVSVLTVLHQDWLNGKEYKCKVSNKALPAPIEKTISKAKGQPREPQVYTLPPSREEMTKNQVSLTCDVSGFYPSDIAVEWESDGQPENNYKTTPPVLDSDGSFFLYSKLTVDKSRWEQGDVFSCSVMHEALHNHYTQKSLSLSPGK
chain: not shown
light: DIVMTQSPSSLSASVGDRVTITCRASQSINSWLSWYQQKPGKPPKLLIYGASNLASGVPSRFKGSGSGTDFTLTISSLQPEDFATYYCQNNYGIIAAGATFGGGTKVEIKRTVAAPSVFIFPPSDEQLKSGTASVVCLLNNFYPREAKVQWKVDNALQSGNSQESVTEQDSKDSTYSLSSTLTLSKADYEKHKVYACEVTHQGLSSPVTKSFNRGEC
B6: 2E4A3_H1.22_L1 (antibody, V domains shown)
VH: QVQLVQSGAEVKKPGASVKVSCKASGYIFTNNYMHWVRQAPGQGLEWMGIISPSVGRTAYAQKFQGRVTMTRDTSTSTVYMELSSLRSEDTAVYYCARGGGSSPRLDYWGQGTLVTVSS
VL: not shown
B7: XENP42655 (bispecific antibody)
heavy: EVQLLESGGGLVQPGGSLRLSCAVSGFSLSSYGVIWVRQAPGKGLEYVSWVSSGGSTNYASSVKGRFTISRDTSKNTVYLQMNSLRAEDTAVYFCARGATNSGTDIWGPGTLVTVSSASTKGPSVFPLAPSSKSTSGGTAALGCLVKDYFPEPVTVSWNSGALTSGVHTFPAVLQSSGLYSLSSVVTVPSSSLGTQTYICNVNHKPSDTKVDKKVEPKSCDKTHTCPPCPAPELLGGPSVFLFPPKPKDTLMISRTPEVTCVVVDVSHEDPEVKFNWYVDGVEVHNAKTKPREEEYNSTYRVVSVLTVLHQDWLNGKEYKCKVSNKALPAPIEKTISKAKGQPREPQVYTLPPSREEMTKNQVSLTCDVSGFYPSDIAVEWESDGQPENNYKTTPPVLDSDGSFFLYSKLTVDKSRWEQGDVFSCSVMHEALHNHYTQKSLSLSPGK
chain: not shown
light: DIVMTQSPSSLSASVGDRVTITCRASQSINSWLSWYQQKPGKPPKLLIYGASNLASGVPSRFKGSGSGTDFTLTISSLQPEDFATYYCQNNYGIIAAGATFGGGTKVEIKRTVAAPSVFIFPPSDEQLKSGTASVVCLLNNFYPREAKVQWKVDNALQSGNSQESVTEQDSKDSTYSLSSTLTLSKADYEKHKVYACEVTHQGLSSPVTKSFNRGEC
B8: XENP38098 (LB_1002, Bivalent) (antibody, V domains shown)
VH: EVQLVESGGGLVKPGGSLRLSCAASGFTFSSYSMNWVRQAPGKGLEWVSSISSSSSYIYYADSVKGRFTISRDNAKNSLYLQMNSLRAEDTAVYYCARGAPMGAAAGWFDPWGQGTLVTVSS
VL: DIQMTQSPSSVSASVGDRVTITCRASQGISSWLAWYQQKPGKAPKLLIYAASSLQSGVPSRFSGSGSGTDFTLTISSLQPEDFATYYCQQGVSFPRTFGGGTKVEIKR
B9: XENP40375_H1L1 (antibody)
chain 1: EVQLLESGGGLVQPGGSLRLSCAVSGFSLSSYGVIWVRQAPGKGLEYVSWVSSGGSTNYASSVKGRFTISRDTSKNTVYLQMNSLRAEDTAVYFCARGATNSGTDIWGPGTLVTVSSASTKGPSVFPLAPSSKSTSGGTAALGCLVKDYFPEPVTVSWNSGALTSGVHTFPAVLQSSGLYSLSSVVTVPSSSLGTQTYICNVNHKPSDTKVDKKVEPKSCDKTHTCPPCPAPELLGGPSVFLFPPKPKDTLMISRTPEVTCVVVDVSHEDPEVKFNWYVDGVEVHNAKTKPREEEYNSTYRVVSVLTVLHQDWLNGKEYKCKVSNKALPAPIEKTISKAKGQPREPQVYTLPPSREEMTKNQVSLTCDVSGFYPSDIAVEWESDGQPENNYKTTPPVLDSDGSFFLYSKLTVDKSRWEQGDVFSCSVMHEALHNHYTQKSLSLSPGK
chain 2: not shown
chain 3: DIVMTQSPSSLSASVGDRVTITCRASQSINSWLSWYQQKPGKPPKLLIYGASNLASGVPSRFKGSGSGTDFTLTISSLQPEDFATYYCQNNYGIIAAGATFGGGTKVEIKRTVAAPSVFIFPPSDEQLKSGTASVVCLLNNFYPREAKVQWKVDNALQSGNSQESVTEQDSKDSTYSLSSTLTLSKADYEKHKVYACEVTHQGLSSPVTKSFNRGEC
B10: XENP38097 (LB_1001, Bivalent) (antibody, V domains shown)
VH: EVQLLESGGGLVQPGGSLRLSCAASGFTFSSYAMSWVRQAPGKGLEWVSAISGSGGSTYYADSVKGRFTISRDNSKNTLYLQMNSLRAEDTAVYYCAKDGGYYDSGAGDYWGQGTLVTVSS
VL: DIQMTQSPSSVSASVGDRVTITCRASQGIDSWLAWYQQKPGKAPKLLIYAASSLQSGVPSRFSGSGSGTDFTLTISSLQPEDFATYYCQQGVSYPRTFGGGTKVEIKR
B11: XENP42654 (bispecific antibody)
heavy: EVQLLESGGGLVQPGGSLRLSCAVSGFSLSSYGVIWVRQAPGKGLEYVSWVSSGGSTNYASSVKGRFTISRDTSKNTVYLQMNSLRAEDTAVYFCARGATNSGTDIWGPGTLVTVSSASTKGPSVFPLAPSSKSTSGGTAALGCLVKDYFPEPVTVSWNSGALTSGVHTFPAVLQSSGLYSLSSVVTVPSSSLGTQTYICNVNHKPSDTKVDKKVEPKSCDKTHTCPPCPAPELLGGPSVFLFPPKPKDTLMISRTPEVTCVVVDVSHEDPEVKFNWYVDGVEVHNAKTKPREEEYNSTYRVVSVLTVLHQDWLNGKEYKCKVSNKALPAPIEKTISKAKGQPREPQVYTLPPSREEMTKNQVSLTCDVSGFYPSDIAVEWESDGQPENNYKTTPPVLDSDGSFFLYSKLTVDKSRWEQGDVFSCSVMHEALHNHYTQKSLSLSPGK
chain: not shown
light: DIVMTQSPSSLSASVGDRVTITCRASQSINSWLSWYQQKPGKPPKLLIYGASNLASGVPSRFKGSGSGTDFTLTISSLQPEDFATYYCQNNYGIIAAGATFGGGTKVEIKRTVAAPSVFIFPPSDEQLKSGTASVVCLLNNFYPREAKVQWKVDNALQSGNSQESVTEQDSKDSTYSLSSTLTLSKADYEKHKVYACEVTHQGLSSPVTKSFNRGEC

Legend:
[1] = molecular target: T1, XENP23311 (His-tagged NKG2D-Fc) (human, UniProt P26718 78-216); experiment: Biacore; steady state
T1 chain: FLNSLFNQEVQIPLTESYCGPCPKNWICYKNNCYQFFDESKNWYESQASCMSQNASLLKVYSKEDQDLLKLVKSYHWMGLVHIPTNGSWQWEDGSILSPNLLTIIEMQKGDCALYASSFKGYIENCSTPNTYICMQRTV

[2] = molecular target: T1, XENP23311 (His-tagged NKG2D-Fc); experiment: Biacore; 1:1 Langmuir
[3] = molecular target: T1, XENP23311 (His-tagged NKG2D-Fc); experiment: Octet; bivalent format
B7H3 = molecular target: T2, B7H3 (human, UniProt Q5ZPR3 29-466); experiment: -; monovalent, 1+1 bispecific format
T2 chain: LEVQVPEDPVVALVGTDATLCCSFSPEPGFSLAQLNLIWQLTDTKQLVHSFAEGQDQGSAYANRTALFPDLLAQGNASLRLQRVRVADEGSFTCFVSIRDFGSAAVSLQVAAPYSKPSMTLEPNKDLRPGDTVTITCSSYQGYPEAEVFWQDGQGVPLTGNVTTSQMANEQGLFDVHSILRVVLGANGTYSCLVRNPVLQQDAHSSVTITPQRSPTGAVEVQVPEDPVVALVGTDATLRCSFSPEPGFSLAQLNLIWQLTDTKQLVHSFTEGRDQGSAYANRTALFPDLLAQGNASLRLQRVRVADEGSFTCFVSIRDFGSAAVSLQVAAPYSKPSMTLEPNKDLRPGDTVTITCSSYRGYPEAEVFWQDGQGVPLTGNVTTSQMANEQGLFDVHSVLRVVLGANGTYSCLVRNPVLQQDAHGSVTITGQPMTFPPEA

NKG2D = molecular target: T3, NKG2D (human, UniProt P26718 78-216)
T3 chain: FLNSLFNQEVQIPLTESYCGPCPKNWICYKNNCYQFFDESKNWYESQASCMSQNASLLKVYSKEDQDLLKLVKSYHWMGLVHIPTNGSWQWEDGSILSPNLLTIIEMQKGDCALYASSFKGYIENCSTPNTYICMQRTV

Binder	Kd [1] [µM]	Kd [2] [µM]	also measured
B1	5.41	14.8	–
B2	–	–	Kd [3]: 0.00052 µM
B3	–	–	Kd (B7H3): 0.0005 µM
B4	–	–	Kd (NKG2D): 0.0288 µM
B5	0.162	0.253	–
B6	–	–	Kd (B7H3): 0.0061 µM
B7	1.49	4.19	–
B8	–	–	Kd [3]: 0.00049 µM
B9	0.019	0.0155	–
B10	–	–	Kd [3]: 0.00042 µM
B11	0.19	0.36	–
